Biological target: human IL‐4Rα (human, UniProt P24394, N‐glycosylation sites (modelled in the crystal structure; positions not given))
Test: cell-based or functional assay

B1: dAb1 (VHH)
VHH: QVQLVESGGGLVQPGGSLRLSCAASGDFYCMAWFRQAPGKEREAVAAIRSGGRSTYYADSVKGRFTISRDNSKNTLYLQMNSLKAEDTAVYYCAVGVDGNCRNYWGQGTLVTVSS
- IC50 in the IL‐4‐induced TF‐1 cell proliferation assay (blocks IL‐4 with IL‐4Rα): ~0.15 nM
- IC50 in the IL‐13‐induced TF‐1 cell proliferation assay (blocks IL‐13 with IL‐4Rα): ~0.15 nM

Source: publication PMC11381654, “Structural insight into interleukin‐4Rα and interleukin‐5 inhibition by nanobodies from a bispecific antibody” (MedComm, 2020)
